Results on one substance are retold here after publication PMC10785756, “Hydrolysis of Antimicrobial Peptides by Extracellular Peptidases in Wastewater” (Environmental Science & Technology, 2023).

Data set [1] can be described thus: AMP incubation with autoclaved wastewater extracts (abiotic removal / adsorption control). Format: physicochemical. Conditions: wastewater extracts (pool I influent). As for the experimental part:
We thawed enzyme extracts and transferred 1.35 mL to 2 mL protein LoBind Eppendorf tubes. For autoclaved controls, extract aliquots of 1.5 mL were autoclaved for 20 min at 121 °C and 2 bar (Wolf Sanoclav LaS-MCS-J) and 1.35 mL of the autoclaved extracts were transferred into 2 mL protein LoBind Eppendorf tubes. We then spiked 150 μL of the AMP stock solution containing all AMPs at 10 μg/mL to the enzyme extracts or 1.35 mL of ultrapure water. […] Triplicate incubations were conducted for the autoclaved and active extracts with spiked AMP. After AMP spiking, we mixed the solutions by inverting the vials and incubating them at 20 °C under horizontal shaking at 300 rpm. […]
We analyzed AMPs using UHPLC (Thermo Scientific Dionex Ultimate 3000) equipped with a Waters XSelect PREMIER CSH C18 column (article number: 186009870) coupled to HRMS (Thermo QExactive). […]
In parallel to AMP incubations with active enzyme extracts, we conducted AMP incubations with autoclaved enzyme extracts to control for abiotic removal (e.g., due to adsorption to components in wastewater extracts). Autoclaving decreased the peptidase activity, as measured with the above-mentioned fluorogenic probe-based assay, of wastewater extracts to <3% of their original activity. […] We determined the AMP concentrations in unspiked enzyme extracts, which were below the limit of quantification (LOQ) for all AMPs in all WWTPs.

Data set [2] relates to extracellular wastewater peptidases (pool I extracts from WWTP influents). In words: AMP incubation with active dissolved extracellular wastewater extracts (pool I) from WWTP influents. Format: in vitro ADME. As for the experimental part: We took samples from four municipal WWTPs in Austria ([…], and D). […] Where existing, we sampled the following five stages along the wastewater treatment process: influent, primary clarification tank, high-load and low-load aeration tanks, and effluent. […] We took 2 × 500 mL grab samples at each stage using a plastic beaker. We transferred the samples into 500 mL glass bottles leaving roughly one-third of the bottle empty, transported them to the lab, and pooled duplicate samples for further processing. Enzyme extraction started within 1 h after sampling. For total suspended solid (TSS) determination, we filtered 20 mL of each sample through a preweighed, dry GF/F Whatman glass microfiber filter (Sigma-Aldrich, WHA1825047) using a vacuum filtration system, dried the filters at 105 °C for 2 h, and determined the TSS contents from the weight difference. […] Otherwise, the extraction process was the same for pools I and II. All extractions were performed in triplicate, and extracts were kept on ice until further use. […] Triplicate incubations were conducted for the autoclaved and active extracts with spiked AMP. […] This protocol step was conducted according to Luther et al.[9] We then transferred the supernatant into a fresh 1.5 mL protein LoBind Eppendorf tube and dried it in a SpeedVac vacuum concentrator (30 °C for approximately 6 h). […] We transferred the solution into QuanRecovery HPLC vials (Waters, 186009186) and stored the samples at -20 °C until analysis. For method development, selected (and indicated) samples were sonicated (Sonorex Super RK 106, Bandelin, max 480 W) for 5 min at different steps of the sample preparation process. We analyzed AMPs using UHPLC (Thermo Scientific Dionex Ultimate 3000) equipped with a Waters XSelect PREMIER CSH C18 column (article number: 186009870) coupled to HRMS (Thermo QExactive). We injected 10 μL of each sample and applied a flow rate of 0.4 mL/min using the following eluent gradient (A: ultrapure water, B: […] Detection parameters were chosen as follows: […] We used Skyline (version 20.2.0.343) to analyze the raw data. […] For products, the peak area had to either increase throughout the incubation experiment or first increase and then decrease.

Data set [3] shares this test system. Briefly: Absolute quantification of transformation products (TPs) formed during AMP incubation with wastewater extracts. Format: in vitro ADME. On the procedure: We thawed enzyme extracts and transferred 1.35 mL to 2 mL protein LoBind Eppendorf tubes. For autoclaved controls, extract aliquots of 1.5 mL were autoclaved for 20 min at 121 °C and 2 bar (Wolf Sanoclav LaS-MCS-J) and 1.35 mL of the autoclaved extracts were transferred into 2 mL protein LoBind Eppendorf tubes. We then spiked 150 μL of the AMP stock solution containing all AMPs at 10 μg/mL to the enzyme extracts or 1.35 mL of ultrapure water. […] Triplicate incubations were conducted for the autoclaved and active extracts with spiked AMP. After AMP spiking, we mixed the solutions by inverting the vials and incubating them at 20 °C under horizontal shaking at 300 rpm. To stop enzymatic reactions at pre-defined sampling time points (i.e., 2 min, 30 min, 1 h, 2 h, and 4 h), we transferred 150 μL of the incubation solution to 450 μL of acetonitrile containing 1% (v/v) formic acid in 1.5 mL protein LoBind Eppendorf tubes, mixed the resulting solution by inverting the tube and by horizontally shaking it at 300 rpm for 2 min at 20 °C, and centrifuged samples at 16,000g for 1 min. This protocol step was conducted according to Luther et al.[9] We then transferred the supernatant into a fresh 1.5 mL protein LoBind Eppendorf tube and dried it in a SpeedVac vacuum concentrator (30 °C for approximately 6 h). To resolubilize AMPs, we added 150 μL of water containing 5% (v/v) acetonitrile and 0.1% (v/v) formic acid, vortexed the samples, and centrifuged them for 10 s at 1000g at room temperature. We transferred the solution into QuanRecovery HPLC vials (Waters, 186009186) and stored the samples at −20 °C until analysis. For method development, selected (and indicated) samples were sonicated (Sonorex Super RK 106, Bandelin, max 480 W) for 5 min at different steps of the sample preparation process.
We analyzed AMPs using UHPLC (Thermo Scientific Dionex Ultimate 3000) equipped with a Waters XSelect PREMIER CSH C18 column (article number: 186009870) coupled to HRMS (Thermo QExactive). […] We used Skyline (version 20.2.0.343) to analyze the raw data. Criteria for parent peptides and hydrolysis product identification were set as described before:[31]m/z deviation <2 ppm, MS/MS fragments with m/z deviation <5 ppm, and reasonable chromatographic peak shape. For products, the peak area had to either increase throughout the incubation experiment or first increase and then decrease.
To learn about the enzymatic hydrolysis pathways of AMPs that we found to be rapidly biotransformed by enzymes in wastewater extracts, we predicted all products of single peptide bond hydrolysis reactions and screened our data-dependent high-resolution mass spectrometry data for experimental evidence in support of the predicted hydrolysis products. These analyses were conducted for the AMPs with the highest biotransformation extents (i.e., >0.5 in at least two WWTPs), namely, cecropin P1, omiganan, and R8. The following requirements for transformation products (TPs) were defined: at least three amino acids, peak area either increases during the incubation experiment or first increases and then decreases, peak area exceeds that in AMP-free enzyme extract by >5-fold and that in spiked autoclaved extracts by >6-fold, and mass deviation <2 ppm from the calculated exact mass. Mass lists, mass deviations, and retention times of all TPs can be found in Tables S6–S11. We further predicted TPs formed via exocleavage mechanisms (i.e., cleavage of one or two terminal amino acids simultaneously from the C- and N- terminus of the peptide) and screened for these TPs in the HRMS data.
For cecropin P1, we performed absolute quantification for TPs II, III, IV, V, VI, and X and found the highest concentrations for TP III. Up to 8.8% of spiked cecropin P1 is converted to TP III during incubations with wastewater extract. For TP II, the conversion ranges from 3.7–5.7%, and for TP V and VI, conversions range between 1.5 and 4.9 and 2.1 and 2.9%, respectively. […]

On to “cecropin P1 (SWLSKTAKKLENSAKKRISEGIAIAIQGGPR; UniProt P14661 14-44, looked up) [AMP from the parasitic nematode Ascaris suum; linear peptide of canonical amino acids]”, for which the “spiked AMP removed by sorption” value in data set [1] is recorded as “up to 70%”. In data set [2], the “biotransformation extent (eq 1, from concentrations in active and autoclaved extracts)” value is on record as over 0.5; the “removal by biotransformation in active wastewater extracts (in words)” value was “rapidly removed to nonquantifiable concentrations”. In addition, the “concentration after 30 min of incubation in active extracts” value in data set [2] (pool I influent extracts from all tested WWTPs, 20 °C, HPLC-HRMS) is recorded as “below the LOQ”. Moreover, the “detectable removal between first sampling time point and 30 min in active extracts” value in data set [2] (pool I influent extracts, WWTPs A-D, all AMPs spiked together (150 μL of 10 μg/mL into 1.35 mL extract), 20 °C, 300 rpm, first point 2 min, then 30 min, HPLC-HRMS, triplicate incubations, maximum over WWTPs, limited by LOQ) is “up to 85%”. For the same substance, in data set [3], the “share of spiked AMP concentration that could be transformed into the selected TPs, considering the maximum sorption potential of each TP” value is listed as “up to 31.6%” and the “sum of quantified TPs as share of the initially spiked AMP concentration” value is given as 22.8%.
